Test results taken from a protein production outcome set (Wang et al. 2014).

Assay: label from the status in PepcDB records

With “MESYSPAQTCLELVPVLADDSISAASTSDVQDRLSALESRVQQQEDEITVLKAALADVLRRLAISEDHVASVKKSMPSKGQPSLREAISMSCITNGSGINRKQNHTSSISIARKETLSSAAKSGTEKKKEKPQGQREKKEESHSNDQSPQIRASPSPQPSSQPLQINRQTPESKSSAPTKSIKRPPTAEKSHNSWENSDDSRNKLLKTVSTSKLISKVIKNTDKHKDVIINQAKMSTREKSSQEGEYIKMFMRGRPITMFIPSDVDNYDDIRTELPPEKLKLEWVYGYRGKDCRANVYLLPTGEIVYFIASVVVLFNYEERTQRHYLGHTDCVKCLAVHPDKIRMATGQIAGVDKDGRPLQPHVRVWDSVSLSTLHVIGLGTFERGVGCLDFSKADSGVHLCVIDDSNEHMLTVWDWQRKSKVAEIKTTNEVVLAVEFHPTDANTIITCGKSHIFFWTWSGNSLTRKQGIFGKYEKPKFVQCLAFLGNGDVLTGDSGGVMLIWSKTTIEPPPGKGPKGVYQISRQIKAHDGSVFTLCQMRNGMLLTGGGKDRKIILWDHDLNLEREIEVPDQYGTIRAVAEGKAEQFLVGTSRNFILRGTFNDGFQIEVQGHTDELWGLATHPFKDLLLTCAQDRQVCMWNSVEHRLEWTRLVDEPGHCADFHPSGTVVAIGTHSGRWFVLDAETRDLVSIHTDGNEQLSVMRYSVDGTLLAVGSHDNFIYLYAVSENGRKYSRYGKCTGHSSYITHLDWSPDNKHIMSNSGDYEILYWDIENGCKLIRNRSDCKDIDWTTYTCVLGFQVFGVWPEGSDGTDINALVRSHHRRVIAVADDFCKVHLFQYPCSKPKAPSHKYSAHSSHVTNVSFTHNDSHLISTGGKDMSIIQWKLVEKLPLPQNEVIADTSSTKAPASATENARLCNAPQPPSQPLPGTAEEESRVSSSPTLVENSLEQSEWGSEDLGVVIDEEPASERGEKQGAAEASEEEQGAAPLC” the protein production was “failed”.

For “MKNKGLIATLILLTILVVGELFYNKSEKRLNLSEKQVVKIGILQYVTHDALDAIEKGVEDGLAQEGYKGKKVKLTVLNAEADQSKIQAMSKQLVNHHNDILIGIATPSAQGLAASTKDTPIIMGAVSDPLGAKLVTNMKKPTTNVTGLSNVVPTKQTVQLIKDITPNIKRIGILYASSEDNSVSQVTEFTKYAQKAGLEVLKYSVPSTNEIKTSMSVMTKKVDAVFVPQDNTIASAFRTVIVAANQANIPVYSSVDTMVEQGSIASVAQSQYGLGLETAKQAIKVLRGKPVKDVPVKVIDTGKPSLNLKAAKHLGIKIPKKIMKQAEITVKVDD”, the protein production was “failed”.

With “MYTCKNKERMLMYKTIIMPVDVFEMELSDKAIRHAEFLAQDDGVIHLLHVLPGSASLSLHRFAADVRRFEEHLQHEAEERLQTMVSHFTIDPSRIKQHVRFGSVRDEVNELAKELDADVVVIGSRNPSISTHLLGSNASSVIRHANLPVLVVR” the protein production was “failed”.

For “MLELIIILLFIILSAIFSASETAYTSLSIIQIQDIRKKGKSGISVYNLVQSPSKLITTILIGNNISNIVASTLTTKFVLEKYGNSALAISTGLITIIVLIFAEILPKQIAILNNEIIALSTSFFLKPLIFIFTPLIYIINKIIKKILNLFKVKTSSQMTKESIKNMLSLAGSLGILKNDSRIFMQKMLDIDQVRASEIMTHRTGVFSLSSSSKLKDVIKLIKEEGYSRIPIYKGQSREQIIGILIAKDLIEVNKKDMNKNVSQFIKPAVFVQQNKRIKDILDIMRKKQKIMAIVIDEYGGFSGILTIEDIVEKIFGAISDEYDIKEEKPLITQINDNTYSILGETTFDEIEEAIGISIKHKEYTNTIGGYLIDLLDKIPTKNETVKTNDGEYFIKEIQNNKIETITFIKSKK”, the protein production was “failed”.

In the case of “MKVIKSNKVTNKFKVSILISTYNKEKFIENTLNNILAQTMNKNDFELIIVDDCSTDNTLDIISKKIESFSNYQFVQLDENSGTPAKPRNLSIDLSKGKYIMFVDGDDWLPSDALENLYTLLKSNKTDYATGLTKYVYSDRIARSGVALSKIAYNKIGLKNFRKSFYHLAPAGRMMKSSVIKKNNIRFPEMIFGEDLQFFAEVFFNTKNISTTQDVVYCANRYDENISLVKSEASTVLNRIKWQNEAYRYLTKKYKNNKIFANLLYRIINKDILEGKFYKKGFIKEIDTLLPVFQDILNTIDNDFNSLDYADDTLNQHALTLIKNGDKEEIIDFVNFYLKKDEKPLYLSNDKYYYVYKENKYKKRMHIILQKIIKKDENIFLKLYSKNSELKYLEIKNRKDPTNYTVLEIKKHLFKTGEYTVQFKANELSKGKLALTVLDKDLNGAAIKSGMQFDFYETVNGNLGYIKKLEHHHHHH”, the protein production is reported as “not failed”.
